The source of these data is US20240377400A1, “METHODS FOR TREATING A SUBTYPE OF COLORECTAL CANCER” (Cornell University, priority 2021, published 2024).

In experiment [1] the test system is Prkci^f/fPrkcz^f/f; Villin-Cre tumors. As to the kind of experiment: Endogenous Prkci^f/fPrkcz^f/f; Villin-Cre tumors treated with PEGPH20: histology, tumor burden, Quant-seq. Type of experiment: in vivo, mouse. The method, then:
FIGS. 9E-9O illustrate Prkci^f/fPrkcz^f/f; Villin-Cre mice (mOle and female, 11-week-old) treated with Veh (n=10) or PEGPH20 (n=12), 0.0375 mg/kg for 3 weeks. Experimental design (E); IHC HA, Masson's trichrome, and αSMA(F); staining quantification (n=5) (G); macroscopic images of tumors (H); total tumor number, tumor size, and tumor load (I); quantification of cancer incidence (J); and sessile serrated lesions (SSL) and carcinoma quantification of tumors (K). Scale bars, 50 μm (F), 10 mm (H). The red arrow denotes tumors>5 mm (H). (L-N) GSEA of transcriptomic data from Quant-seq on PEGPH20-treated tumors versus Veh (n=3) using compilation H (MSigDB) (L), stroma-related signatures (M) and serrated-related signatures (N). (O) GSEA plots of the indicated gene signatures for PEGPH20-treated tumors versus Veh (n=3). Results are shown as mean±SEM *p<0.05, **p<0.01, ***p<0.001, ****p<0.0001. See also FIG. 16.
Animal handling and experimental procedures conformed to institutional guidelines and were approved by the Sanford-Burnham-Prebys Medical Discovery Institute Institutional Animal Care and Use Committee, and by the Weill Cornell Medicine Institutional Animal Care and Use Committee. Prkci^f/fPrkcz^f/f, Villin-Cre, Prkci^f/fPrkcz^f/f; Villin-Cre and Villin-CreERT2 mice were previously described (el Marjou et al., 2004; Madison et al., 2002; Nakanishi et al., 2018) Prkci^f/fPrkcz^f/f; Villin-CreERT2 mice were generated by breeding Prkci^f/fPrkcz^f/f mice with Villin-CreERT2 (Jackson Laboratory, stock number 020282) mice. All mouse strains were generated in a C57BL/6 background and were born and maintained under pathogen-free conditions. For PEGPH20 treatment, 11-week-old Prkci^f/fPrkcz^f/f; Villin-Cre were retro-orbitally injected twice a week for 3 weeks with a dose of 0.0375 mg/kg of PEGPH20 (Halozyme Therapeutics), until they were sacrificed. Control mice were treated with vehicle. For xenograft experiments, 6-7 week-old male C57BL/6 were purchased from Charles River Labs (Wilmington, MA, USA). All mice were maintained on food and water ad libitum and were age-matched and co-housed for all experiments. Mice were sacrificed and small intestine, colon, tumors or other organs were collected for analysis. All genotyping was done by PCR. Age- and sex-matched mice were used for all experiments
Tissues from indicated mice were isolated, rinsed in ice-cold PBS, fixed in 10% neutral buffered formalin overnight at 4° C., dehydrated, and embedded in paraffin. Sections (5 μm) were stained with hematoxylin and eosin (H&E). For immunohistochemistry, sections were deparaffinized, rehydrated, and then treated for antigen retrieval. After blocking in Protein Block Serum-Free solutions (DAKO), tissues were incubated with primary antibody overnight at 4° C. followed by incubation with biotinylated secondary antibody. Endogenous peroxidase was quenched in 3% H2O2 in water for 10 minutes at room temperature. Antibodies were visualized with avidin-biotin complex (Vectastain Elite; Vector Laboratories) using diaminobenzidine as the chromogen. Stained sections were analyzed with a Zeiss light microscope supplemented with Zen 3.3 Bule edition software. For immunofluorescence, the signal was visualized using the OPAL™ 4-Color Manual IHC Kit (Akoya Biosciences, MA), which allows simultaneous detection of multiple targets in the same image. Fluorophores Opal 520, Opal 570, and TSA Plus Cyanine 5 were used, and the sections were counterstained with Spectral DAPI.
Total RNA was extracted using Quick-RNA MiniPrep kit (Zymo Research). Libraries were prepared from 200 ng of total RNA using the QuantSeq 3′ mRNA-Seq Library Prep Kit FWD for Illumina from Lexogen, and optional UMIs (Vienna, Austria). Barcoded libraries were pooled, and single end sequenced (1×75) on the Illumina NextSeq 500 using the High output V2.5 kit (Illumina Inc., San Diego CA).
For 3′RNA-Seq, read data was processed with the BlueBee Genomics Platform (BlueBee, San Mateo, CA). […]

A further experiment has as its system MTO-sgPrkci/sgPrkcz. In words: PEGPH20 treatment in vitro of mouse tumor organoids, qPCR. Type of experiment: cell-based. The note with it: PEGPH20 2.5 μg/ml every other day for 6 days. The source says: To perform PRKCI and PRKCZ editing in PDOs, single-guide RNA sequences targeting PRKCI and PRKCZ (Table 3), were purchased from Synthego and transduced into PDOs with recombinant Streptococcus pyogenes Cas9 protein (Truecut Cas9 Protein v2, Thermo. To knock out Prkcz in mouse sgPrcki MTOs (Linares et al., 2021), single-guide RNA sequence targeting Prkcz (Table 3) was purchased from Synthego and transduced into sgPrcki MTOs as described above. PRKCI, PRKCZ, and Prkcz were knocked out using the Neon Transfection System 1 (Invitrogen) following the manufacturer's protocol and single clones were expanded and screened by protein immunoblotting. For the deletion of Prkci and Prkcz in normal organoids, 500 nM 4-OH-tamoxifen was added the second day after organoids were passaged. […]
Total RNA from cultured organoids was extracted using TRIZOL reagent (Invitrogen) and purified by the RNeasy Mini Kit (QIAGEN), followed by DNase treatment. After quantification using a Nanodrop 1000 spectrophotometer (Thermo Scientific), RNA was either processed for RNA-seq or reverse-transcribed using random primers and MultiScribe Reverse Transcriptase (Applied Biosystems). Gene expression was analyzed by amplifying 500 ng of the complementary DNA using the CFX96 Real Time PCR Detection System with SYBR Green Master Mix (BioRad) and primers described in Table 2. […]

[2] abbreviates: small intestine, PEGPH20 0.0375 mg/kg, 3 weeks.

B1: PEGPH20: a PEGylated version of human recombinant PH20 hyaluronidase; clinical-grade pegylated hyaluronidase (Halozyme Therapeutics) (protein, UniProt P38567 36-490, looked up)
Hyaluronidase PH-20: LNFRAPPVIPNVPFLWAWNAPSEFCLGKFDEPLDMSLFSFIGSPRINATGQGVTIFYVDRLGYYPYIDSITGVTVNGGIPQKISLQDHLDKAKKDITFYMPVDNLGMAVIDWEEWRPTWARNWKPKDVYKNRSIELVQQQNVQLSLTEATEKAKQEFEKAGKDFLVETIKLGKLLRPNHLWGYYLFPDCYNHHYKKPGYNGSCFNVEIKRNDDLSWLWNESTALYPSIYLNTQQSPVAATLYVRNRVREAIRVSKIPDAKSPLPVFAYTRIVFTDQVLKFLSQDELVYTFGETVALGASGIVIWGTLSIMRSMKSCLLLDNYMETILNPYIINVTLAAKMCSQVLCQEQGVCIRKNWNSSDYLHLNPDNFAIQLEKGGKFTVRGKPTLEDLEQFSEKFYCSCYSTLSCKEKADVKDTDAVDVCIADGVCIDAFLKPPMETEEPQIFYNASPSTLS
modifications: PEGylated
Turning to B1, the “signatures related to invasion and tumor progression (EMT, myogenesis, angiogenesis, TGFβ signaling), stromal activation, serrated tumorigenesis and the CMS4 subtype” value in experiment [1] (GSEA of Quant-seq, treated versus Veh) was “decrease”. The “IFN and allograft rejection signatures” value in experiment [1] (GSEA of RNAseq, endogenous tumors) is recorded as “enrichment”. Further, the “stromal HA accumulation” value in experiment [1] (PEGPH20 0.0375 mg/kg twice a week, 3 weeks, IHC) is “eliminated”. Further, in experiment [1] (PEGPH20 0.0375 mg/kg, 3 weeks), the “cancer incidence in the small intestine” value was “lower”, the invasive carcinomas entry is listed as “reduced” and the “sessile serrated lesions (SSL)” value was “fewer”. Besides, the “collagen deposition and αSMA expression” value in experiment [1] (PEGPH20 0.0375 mg/kg, 3 weeks, Masson's trichrome, IHC) is given as “reduced”. Also, the “intestinal and colon tumors” value in experiment [1] (figure legend title, FIGS. 16A-16E) is “reduces”. In experiment [1] (proximal colon tumors), the colon tumorigenesis entry is “reduced”. For the same molecule, in experiment [1] (setting [2]), the average tumor size result was “significant reduction”, the tumor load result is “significant reduction” and the tumor number entry is given as “significant reduction”. In addition, in the experiment with MTO-sgPrkci/sgPrkcz, the Anxa10 expression result is “reduced” and the Clu levels result is listed as “without changes”.
